Experimental data published in the supplement of paper PMC7877785.
± gives the uncertainty stated by the source.

Test: self-splicing fitness, log relative to wild type (ln ratio); higher = more splicing; Tetrahymena group I intron in knt gene, E. coli kanamycin selection, DiMSum; sequences stand for … in CUCUCU…GGAGGGAAAAGUUAUCAGGCAUGCACCUGGUAGCUAGUCUUUAAACCAAUAGAUUGCAUCGGUUUAAAAGGCAAGACCGUCAAAUUGCGGGAAAGGGGUCAACAGCCGUUCAGUACCAAGUCUCAGGGGAAACUUUGAGAUGGCCUUGCAAAGGGUAUGGUAAUAAGCUGACGGACAUGGUCCUAACCACGCAGCCAAGUCCUAAGUCAACAGAUCUUCUGUUGAUAUGGAUGCAGUUCACAGACUAAAUGUCGGUCGGGGAAGAUGUAUUCUUCUCAUAAGAUAUAGUCGGACCUCUCCUUAAUGGGAGCUAGCGGAUGAAGUGAUGCAACACUGGAGCCGCUGGGAACUAAUUUGUAUGCGAAAGUAUAUUGAUUAGUUUUGGAGUACUCGUGGUCG
In short: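 Fitness was computed with DiMSum as the error-weighted combination of replicate fold changes, kanamycin versus none, each normalised to wild type. The library randomised all eight intron nucleotides of the P1ex region, with the intron placed in the knt kanamycin-resistance gene on pET-22b(+) in E. coli BL21(DE3). Six replicate transformations were grown overnight at 37°C or 30°C on LB agar with or without 25 μg/mL kanamycin, plus 100 μg/mL carbenicillin, 50 μM IPTG and 0.2% rhamnose. Pooled colonies were amplicon-sequenced on an Illumina HiSeq 2500.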

| Sequence | self-splicing fitness (ln) (30 °C) | self-splicing fitness (ln) (37 °C) |
| --- | --- | --- |
| AAGCAGCAAUAUUACGGAUC | -1.81 ± 0.093 | -1 ± 0.1 |
| AAGCAGCAAUAUUACGGAUU | -0.723 ± 0.055 | -0.000157 ± 0.077 |
| AAGCAGCAAUAUUACGGUUC | -2.24 ± 0.097 | -2.02 ± 0.12 |
| AAGCAGCAAUAUUACGUAAG | -1.49 ± 0.074 | -1.02 ± 0.088 |
| AAGCAGCAAUAUUACGUCAG | -3.06 ± 0.2 | -2.43 ± 0.23 |
| AAGCAGCAAUAUUACGUGAC | -3.33 ± 0.14 | -2.38 ± 0.18 |
| AAGCAGCAAUAUUACGUGGA | -3.63 ± 0.21 | -1.44 ± 0.11 |
| AAGCAGCAAUAUUACGUGUG | -2.67 ± 0.083 | -1.92 ± 0.11 |
| AAGGAGCAAUAUUACGAACU | -1.63 ± 0.15 | 0.581 ± 0.21 |
| AAGGAGCAAUAUUACGAGUC | -3.2 ± 0.47 | -2.05 ± 0.23 |
| AAGGAGCAAUAUUACGAUUU | -0.545 ± 0.12 | 0.0878 ± 0.15 |
| AAGGAGCAAUAUUACGCCAA | -4.19 ± 0.46 | -3.11 ± 0.3 |
| AAGGAGCAAUAUUACGCGUA | -3.11 ± 0.28 | -1.29 ± 0.17 |
| AAGGAGCAAUAUUACGCUCU | -3.15 ± 0.18 | -3.85 ± 0.42 |
| AAGGAGCAAUAUUACGCUUC | – | -1.88 ± 0.39 |
| AAGGAGCAAUAUUACGGACC | -2.55 ± 0.17 | -2.97 ± 0.33 |
| AAGGAGCAAUAUUACGGAUA | -3.9 ± 0.35 | -1.99 ± 0.29 |
| AAGGAGCAAUAUUACGGCGG | -4.57 ± 0.3 | -2.12 ± 0.32 |
| AAGGAGCAAUAUUACGGCUU | -2.58 ± 0.25 | -1.64 ± 0.28 |
| AAGGAGCAAUAUUACGUAUA | -2.76 ± 0.21 | -2.85 ± 0.29 |

| Sequence | self-splicing fitness (ln) (30 °C) | self-splicing fitness (ln) (37 °C) |
| --- | --- | --- |
| AAGGAGCAAUAUUACGUCAC | – | -1.45 ± 0.46 |
| AAGGAGCAAUAUUACGUCCG | -1.79 ± 0.2 | -1.03 ± 0.28 |
| AAGGAGCAAUAUUACGUGUA | – | -2.29 ± 0.27 |
| AAGGAGCAAUAUUACGUUAA | -3.12 ± 0.25 | -1.69 ± 0.19 |
| AAGGAGCAAUAUUACGUUUC | -3.26 ± 0.43 | -2.26 ± 0.43 |
| AAGUAGCAAUAUUACGAAAG | -2.94 ± 0.27 | -2.17 ± 0.25 |
| AAGUAGCAAUAUUACGAACU | -0.525 ± 0.1 | 0.139 ± 0.12 |
| AAGUAGCAAUAUUACGAGUC | -2.53 ± 0.18 | -2.47 ± 0.3 |
| AAGUAGCAAUAUUACGAGUG | -3.16 ± 0.18 | -2.03 ± 0.19 |
| AAGUAGCAAUAUUACGAUAC | -3.92 ± 0.28 | -1.71 ± 0.25 |
| AAGUAGCAAUAUUACGCACC | -1.16 ± 0.12 | -0.367 ± 0.2 |
| AAGUAGCAAUAUUACGCAUU | -2.16 ± 0.14 | -0.921 ± 0.14 |
| AAGUAGCAAUAUUACGCCAA | -2.53 ± 0.24 | -1.55 ± 0.23 |
| AAGUAGCAAUAUUACGGCGA | -0.41 ± 0.11 | -0.0374 ± 0.11 |
| AAGUAGCAAUAUUACGGGUG | -3.43 ± 0.17 | -1.14 ± 0.12 |
| AAGUAGCAAUAUUACGGUGC | – | -2.76 ± 0.32 |
| AAGUAGCAAUAUUACGUAAC | -1.51 ± 0.13 | -2.24 ± 0.24 |
| AAGUAGCAAUAUUACGUAGU | -3.59 ± 0.19 | -2.32 ± 0.21 |
| AAGUAGCAAUAUUACGUGAA | -2.36 ± 0.12 | -1.78 ± 0.13 |
